The values that follow come from US20060127393A1 (Amgen, published 2006).

By Kd is commonly meant the free concentration of one partner at which half of the binding sites on the other are occupied at equilibrium, for simple one-to-one binding. A higher Kd goes with lower affinity. A word on the koff: it is a measure of how fast the partners let go of each other. Low readings indicate slow dissociation, high ones fast dissociation. In general, kon refers to the second-order rate constant of association. Low values mean slow association, high ones fast association.

In experiment [1] the target is T1, human Dkk-1 (human, UniProt O94907 32-266, carbohydrate moieties attached to Asn256).
T1 sequence: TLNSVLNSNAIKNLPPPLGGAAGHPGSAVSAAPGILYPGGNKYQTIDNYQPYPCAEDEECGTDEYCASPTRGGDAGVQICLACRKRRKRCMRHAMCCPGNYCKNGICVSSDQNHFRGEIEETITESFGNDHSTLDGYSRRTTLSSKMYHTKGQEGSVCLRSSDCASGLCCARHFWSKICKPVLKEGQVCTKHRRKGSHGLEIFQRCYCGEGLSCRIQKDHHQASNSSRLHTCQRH
Nature of the experiment: cell-based or functional assay.

The target of experiment [2] is T2, murine Dkk-1 (mouse, UniProt O54908 32-272).
T2 sequence: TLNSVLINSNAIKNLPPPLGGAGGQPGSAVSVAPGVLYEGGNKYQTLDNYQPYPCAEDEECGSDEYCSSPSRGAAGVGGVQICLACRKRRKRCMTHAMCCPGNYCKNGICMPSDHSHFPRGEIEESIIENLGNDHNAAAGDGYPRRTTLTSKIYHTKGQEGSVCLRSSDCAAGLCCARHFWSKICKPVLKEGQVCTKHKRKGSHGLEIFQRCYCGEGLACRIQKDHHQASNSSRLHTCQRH
Kind of experiment: cell-based or functional assay.

Experiment [3] has as its target rat Dkk-1 (rat). Kind of experiment: cell-based or functional assay.
The target of experiment [4] is T1, human Dkk-1. Kind of experiment: SPR, BiaCore 2000, Dkk-1 immobilized on CM5 chip, antibody injected. How it is done:
(§1) Kinetic analyses were performed to study the binding of the 11H10 and 1F11 antibodies to Dkk-1 using BiaCore 2000 (BIACORE, Uppsala, Sweden). Rat Dkk-1 (260 μg/ml), murine Dkk-1 (690 μg/ml) and human Dkk-1(900 μg/ml) were immobilized on a CM5 chip surface, and various concentrations (0.78 nM to about 100 nM) of the antibodies were injected over the immobilized Dkk-1 surfaces. The binding sensorgrams were analyzed using BIAevaluation 3.2.

In experiment [5] the target is T2, murine Dkk-1. The experiment is described as above. As to the method:
as §1

Experiment [6] deals with rat Dkk-1 (rat). Described as above. How it is done:
as §1

Experiment [7] concerns the target T1, human Dkk-1. Kind of experiment: KinExA 3000 equilibrium binding in solution, Dkk-1-coated beads. The text has this: (§2) It was apparent from the BiaCore results that 11H10 had the higher affinity for Dkk-1, and that its affinity for target exceeded the sensitivity limits of the BiaCore assay. Accordingly, the affinity of binding of 11H10 to Dkk-1 was further assessed by an equilibrium binding analysis using the more sensitive KinExA® 3000 (Sapidyne Instruments Inc., Boise, Id.). For these measurements, Reacti-Gel 6× beads (Pierce, Rockford, Ill.) were pre-coated with either mouse, rat or human Dkk-1 and blocked with BSA. One hundred pM, 300 pM, or 1000 pM of the 11H10 antibody was mixed with various concentrations of human, mouse or rat Dkk-1, ranging in concentration from 1 pM to 50 nM, and equilibrated at room temperature for 8 hours. The mixtures were then passed over the Dkk-1-coated beads. The amount of bead-bound anti-Dkk-1 antibody was quantified using goat anti-rat-IgG antibody labeled with a fluorescent tag (Cy5; Jackson Immuno Research, West Grove, Pa.). The amount of fluorescent signal measured was proportional to the concentration of free anti-Dkk-1 antibody in each reaction mixture at equilibrium. The dissociation equilibrium constant (Kd) was obtained from nonlinear regression of the competition curves using a dual-curve one-site homogeneous binding model using the KinExA software.

Experiment [8] concerns the target T2, murine Dkk-1. The description is as above.
Text: as §2

The target of experiment [9] is rat Dkk-1 (rat). The description is as above.
Text: as §2

Experiment [10] concerns the target T3, CNBr2 fragment of human Dkk-1 (human, UniProt O94907 32-122; O94907 127-178).
T3 construct: Two peptides held together by disulfide bonds; represents disulfide domain 1
T3 sequence 1: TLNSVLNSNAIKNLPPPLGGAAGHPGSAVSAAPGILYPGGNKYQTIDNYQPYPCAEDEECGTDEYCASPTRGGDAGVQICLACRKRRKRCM
T3 sequence 2: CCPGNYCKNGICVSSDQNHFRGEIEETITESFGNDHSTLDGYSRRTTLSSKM
Nature of the experiment: BiaCore. How it is done:
To characterize this conformational epitope, a strategy was applied that involved fragmenting human Dkk-1 with cyanogen bromide (CNBr) and several different proteases, then testing the resulting fragments to see whether they could still bind to the 11H10 antibody. The resulting data permitted the location of the epitope to be determined. In brief, the peptide digests were incubated with or without the antibody, passed through a 10 K cut-off membrane to trap any peptides that had become bound to the antibody (˜150,000 Da), then subjected to HPLC peptide mapping. […] The individual HPLC peaks were collected and the peptides identified and mapped by N-terminal sequencing. To determine if the peptides could bind 11H10, they were subjected to real time biospecific interaction assays with a BiaCore work station, using Protein A-trapped anti-Dkk-1 antibody as a biosensor for binding.
CNBr cleavage of hDkk-1 generated two large fragments, CNBr1 and CNBr2. These represented, respectively, disulfide domain 2 and disulfide domain 1. […] CNBr2 similarly consisted of two peptides (amino acids 32-122 of SEQ ID NO:2 and amino acids 127-178 of SEQ ID NO:2), also held together by disulfide bonds. […] Thus, it was concluded that 11H10 binds to an epitope located in disulfide domain 2 of Dkk-1.
(In SPR one partner is held on a chip, and binding of the other changes the refractive index at the surface.)

The target of experiment [11] is T1, human Dkk-1. Nature of the experiment: cell-based or functional assay. The source holds these as a separate data set.
The target in experiment [12] is T2, murine Dkk-1. Nature of the experiment: cell-based or functional assay. This is another data set of the same source.

B1: 11H10 monoclonal antibody (rat) (antibody, IgG1, V domains shown)
VH: EVQLVESGGGLVQPANSLKLSCAASGFTFSDYAMAWVRQSPKKGLEWVATIIYDGSSTYYRDSVKGRFTISRDNAKSTLYLQMDSLRSEDTATYYCATGLGIATDYFDYWGQGVLVTVSS
VL: DIRMTQSPASLSASLGETVNIECLASEDIYSDLAWYQQKPGKSPQLLIYNANSLQNGVPSRFSGSGSGTQYSLKINSLQSEDVATYFCQQYNNYPPTFGGGTKLELKR
notes: Rat hybridoma antibody of the IgG1 isotype; also called rat 11H10; L1H1
On to B1, for which the “EC50 (nM), TCF-lef luciferase assay” value with human Dkk-1 [1] amounted to 4 nM; in the experiment with murine Dkk-1 [2] it was 11.5 nM; with rat Dkk-1 [3], 5 nM. Also, the Kd in the experiment with human Dkk-1 [4] is below 0.1 nM; in the experiment with murine Dkk-1 [5], below 0.1 nM; with rat Dkk-1 [6], 0.29 nM; with human Dkk-1 [7], 0.13 nM; in the experiment with murine Dkk-1 [8] it was 0.165 nM; in the experiment with rat Dkk-1 [9], 0.54 nM. The koff in the experiment with human Dkk-1 [4] was below 5e-05 s⁻¹; in the experiment with murine Dkk-1 [5], below 5e-05 s⁻¹; in the experiment with rat Dkk-1 [6], 1.54e-05 s⁻¹. Also, the kon in the experiment with human Dkk-1 [4] was determined as 52000 M⁻¹ s⁻¹; with murine Dkk-1 [5], 54000 M⁻¹ s⁻¹; with rat Dkk-1 [6] it was 54000 M⁻¹ s⁻¹. In addition, the binding result in [10] is reported as “no binding”. The “EC50 (nM), restoring ALP activity in ST2 cells given Wnt3a and Dkk-1” value with human Dkk-1 [11] amounted to 3.5 nM; with murine Dkk-1 [12], 6.1 nM.
